Measurements taken from US20250034219A1 (MOZZA FOODS, published 2025).

T1: recombinant B. taurus β-casein expressed from pMOZ1066 (GY1 signal peptide, β-casein, FLAG tag, 6 histidine tag, HDEL peptide)
T1 sequence: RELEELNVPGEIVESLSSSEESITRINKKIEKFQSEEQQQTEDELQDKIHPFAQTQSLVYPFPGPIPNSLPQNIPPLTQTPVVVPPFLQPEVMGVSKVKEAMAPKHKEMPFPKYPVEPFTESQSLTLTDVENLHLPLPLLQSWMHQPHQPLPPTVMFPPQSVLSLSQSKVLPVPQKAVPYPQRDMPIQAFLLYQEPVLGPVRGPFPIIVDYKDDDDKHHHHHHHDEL

T2: recombinant B. taurus αS1-casein expressed from pMOZ1066 (GY1 signal peptide, αS1-casein, FLAG tag, 6 histidine tag, HDEL peptide)
T2 sequence: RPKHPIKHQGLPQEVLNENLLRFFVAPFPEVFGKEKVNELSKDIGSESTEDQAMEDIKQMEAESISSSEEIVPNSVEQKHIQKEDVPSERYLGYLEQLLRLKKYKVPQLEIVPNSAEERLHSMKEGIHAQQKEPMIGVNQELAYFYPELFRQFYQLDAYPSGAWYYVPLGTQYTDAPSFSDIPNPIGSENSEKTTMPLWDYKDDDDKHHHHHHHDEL

T3: recombinant B. taurus Beta Casein expressed from pMOZ702 (signal peptide, beta casein, HA tag, 6 histidine tag, HDEL peptide)
T3 chain: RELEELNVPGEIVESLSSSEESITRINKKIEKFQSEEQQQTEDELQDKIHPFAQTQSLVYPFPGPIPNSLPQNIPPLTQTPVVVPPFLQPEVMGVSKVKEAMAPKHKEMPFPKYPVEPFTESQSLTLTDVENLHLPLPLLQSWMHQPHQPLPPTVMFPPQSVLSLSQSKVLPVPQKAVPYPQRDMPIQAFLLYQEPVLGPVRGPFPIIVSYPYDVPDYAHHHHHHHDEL

T4: recombinant B. taurus αS1-casein expressed from pMOZ1066 (GY1 signal peptide, αS1-casein, FLAG tag, 6 … (B. taurus))
T4 construct: also called Alpha S1 casein; alphaS1 casein
T4 chain: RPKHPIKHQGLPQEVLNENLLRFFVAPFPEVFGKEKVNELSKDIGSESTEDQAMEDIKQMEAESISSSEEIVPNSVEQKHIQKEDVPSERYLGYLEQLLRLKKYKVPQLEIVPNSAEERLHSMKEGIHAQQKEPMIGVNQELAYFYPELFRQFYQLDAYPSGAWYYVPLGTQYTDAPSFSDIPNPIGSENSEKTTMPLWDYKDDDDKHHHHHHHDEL

T5: recombinant B. taurus Beta Casein expressed from pMOZ702 (signal peptide, beta casein, HA tag, 6 histidine tag, HDEL peptide)
T5 sequence: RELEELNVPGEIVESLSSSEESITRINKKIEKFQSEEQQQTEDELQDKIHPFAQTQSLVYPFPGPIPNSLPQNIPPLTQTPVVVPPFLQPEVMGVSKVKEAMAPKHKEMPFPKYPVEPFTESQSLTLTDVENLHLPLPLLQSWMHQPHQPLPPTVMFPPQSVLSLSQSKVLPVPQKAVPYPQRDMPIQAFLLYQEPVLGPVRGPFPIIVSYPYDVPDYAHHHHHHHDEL


Columns and labels:
[1] = tested on: T1, recombinant B. taurus β-casein expressed from pMOZ1066 (GY1 signal peptide, β-casein, FLAG tag, 6 histidine tag, HDEL peptide)
[2] = tested on: T2, recombinant B. taurus αS1-casein expressed from pMOZ1066 (GY1 signal peptide, αS1-casein, FLAG tag, 6 histidine tag, HDEL peptide)
[3] = target: T3, recombinant B. taurus Beta Casein …
[4] = target: T4, recombinant B. taurus αS1-casein …; experiment: TEM with FLAG immunogold labelling of soy embryos; micelle of αS1, β and κ casein in vivo
[5] = tested on: T5, recombinant B. taurus Beta Casein expressed from pMOZ702 (signal peptide, beta casein, HA tag, 6 histidine tag, HDEL peptide); remark: listed apart in the source

Molecule	upward band shift of beta casein on anti-beta-casein Western blot (2 human kinases together, pMOZ702+pMOZ11+pMOZ12) [3]	upward band shift of beta casein on anti-beta-casein Western blot (co-expressed with HsFam20C and HsFam20A together, pMOZ702+pMOZ11+pMOZ12) [3]	upward band shift of beta casein on anti-beta-casein Western blot (2 bovine kinases together, pMOZ702+pMOZ14+pMOZ15) [5]	also measured
recombinant B. taurus Fam20C expressed from pMOZ1066				phosphosite detected by mass spectrometry in 1066 milk [1]: only one phosphosite S50-p was detected to be phosphorylated in beta casein in both 1066 milk and raw milk (data not shown); phosphorylation by mass spectrometry in 1066 milk [2]: Phosphorylation of alphaSI casein was not detected in 1066 milk (data not shown)
recombinant H. sapiens Fam20C expressed from pMOZ11 (protein) LDLLPRLERRGARPSGEPGCSCAQPAAEVAAPGWAQVRGRPGEPPAASSAAGDAGWPNKHTLRILQDFSSDPSSNLSSHSLEKLPPAAEPAERALRGRDPGALRPHDPAHRPLLRDPGPRRSESPPGPGGDASLLARLFEHPLYRVAVPPLTEEDVLFNVNSDTRLSPKAAENPDWPHAGAEGAEFLSPGEAAVDSYPNWLKFHIGINRYELYSRHNPAIEALLHDLSSQRITSVAMKSGGTQLKLIMTFQNYGQALFKPMKQTREQETPPDFFYFSDYERHNAEIAAFHLDRILDFRRVPPVAGRMVNMTKEIRDVTRDKKLWRTFFISPANNICFYGECSYYCSTEHALCGKPDQIEGSLAAFLPDLSLAKRKTWRNPWRRSYHKRKKAEWEVDPDYCEEVKQTPPYDSSHRILDVMDMTIFDFLMGNMDRHHYETFEKFGNETFIIHLDNGRGFGKYSHDELSILVPLQQCCRIRKSTYLRLQLLAKEEYKLSLLMAESLRGDQVAPVLYQPHLEALDRRLRVVLKAVRDCVERNGLHSVVDDDLDTEHRAASARHDEL	In lanes containing beta casein coexpressed with 1 human kinase, 2 human kinases, 1 bovine kinase or 2 bovine kinases the bands are shifted upward on the gel relative to the sample transformed with only beta casein	In lanes containing beta casein coexpressed with 2 human kinases the bands are shifted upward on the gel relative to the sample transformed with only beta casein		
recombinant H. sapiens Fam20A expressed from pMOZ12 (protein) QLRPRERPRGCPCTGRASSLARDSAAAASDPGTIVHNFSRTEPRTEPAGGSHSGSSSKLQALFAHPLYNVPEEPPLLGAEDSLLASQEALRYYRRKVARWNRRHKMYREQMNLTSLDPPLQLRLEASWVQFHLGINRHGLYSRSSPVVSKLLQDMRHFPTISADYSQDEKALLGACDCTQIVKPSGVHLKLVLRFSDFGKAMFKPMRQQRDEETPVDFFYFIDFQRHNAEIAAFHLDRILDFRRVPPTVGRIVNVTKEILEVTKNEILQSVFFVSPASNVCFFAKCPYMCKTEYAVCGNPHLLEGSLSAFLPSLNLAPRLSVPNPWIRSYTLAGKEEWEVNPLYCDTVKQIYPYNNSQRLLNVIDMAIFDFLIGNMDRHHYEMFTKFGDDGFLIHLDNARGFGRHSHDEISILSPLSQCCMIKKKTLLHLQLLAQADYRLSDVMRESLLEDQLSPVLTEPHLLALDRRLQTILRTVEGCIVAHGQQSVIVDGPVEQLAPDSGQANLTSHDEL	In lanes containing beta casein coexpressed with 1 human kinase, 2 human kinases, 1 bovine kinase or 2 bovine kinases the bands are shifted upward on the gel relative to the sample transformed with only beta casein	In lanes containing beta casein coexpressed with 2 human kinases the bands are shifted upward on the gel relative to the sample transformed with only beta casein		
recombinant B. taurus β-casein expressed from pMOZ1066 (GY1 signal peptide, β-casein, FLAG tag, 6 histidine tag, HDEL peptide) (other, S50-p (phosphosite detected by mass spectrometry in 1066 milk; numbering not stated), Co-expressed with BtFam20C in soybean; also called Beta casein) RELEELNVPGEIVESLSSSEESITRINKKIEKFQSEEQQQTEDELQDKIHPFAQTQSLVYPFPGPIPNSLPQNIPPLTQTPVVVPPFLQPEVMGVSKVKEAMAPKHKEMPFPKYPVEPFTESQSLTLTDVENLHLPLPLLQSWMHQPHQPLPPTVMFPPQSVLSLSQSKVLPVPQKAVPYPQRDMPIQAFLLYQEPVLGPVRGPFPIIVDYKDDDDKHHHHHHHDEL				binding result [4]: binds
recombinant B. taurus Fam20A expressed from pMOZ15 (enzyme, from a related filing) MHVSSHLGPRVRSRLQPRERPLGCPCARRAASPAPGPAPSAPRRVEPSGGGDPGSKLRALFAHPLYNEPEEPPLLGPEDSLLAGPEALRYYRRKVARWNRRRKMYKEQLNLTSPEPPVQLRQEASWVQFHLGINRHGLYPRSSPVVSKLLQDMRHFPTISADYSQDEKALLGACDCSQIVKPSGVHLKLVLRFSDFGKAMFKPMRQQRDEETPEDFFYFIDFQRHNAEIAAFHLDRILDFRRVPPTVGRLVNVTREILEVTRNEILQSVFFVSPANNVCFFAKCPYMCKTEYAVCGSPHLLEGSLSAFLPSLNLAPRFSMPSPWIRSYSLAGREEWEVNPLYCEAVKQAYPHNSSSRLLNIIDMAIFDFLIGNMDRHHYEMFTKFGEDGFLIHLDNARGFGRHSHDEVSILAPLFQCCRIKRKTLLHLQLLAQADYRLSDVMRESLLEDQLSPVLTEPHLLALDRRLQTVLRTVQDCIEAHGEQSVVADGPVGQWAPDSSRANATSHDEL			In lanes containing beta casein coexpressed with 1 human kinase, 2 human kinases, 1 bovine kinase or 2 bovine kinases the bands are shifted upward on the gel relative to the sample transformed with only beta casein	
recombinant B. taurus Fam20C expressed from pMOZ14 (enzyme, from a related filing) MLLPKLERSAARPSGEPGCSCAQPAAEAAAPGWAQARGHPGGELEAAASAAGDAGWPNKHTLRILQDFSSDPSSNLTSHSLEKLPPAAEAAEGAPPGQDPGVRRPPDPAHRPLPRDPGPRGPVLPPGLSGDGSLLTRLFQHPLYQVPIPPLTEGDVLFNVNSDIRFNPKAATAENPDWPHEGPEDEFLPTGEAAVDSYPNWLKFHIGINRYELYSRHNPAVGALLQDLGTQKITSVAMKSGGTQLKLIMTFQNYGQALFKPMKQTREQETPPDFFYFSDYERHNAEIAAFHLDRILDFRRVPPVAGRLVNMTKEIRDVTRDKKLWRTFFISPANNVCFYGECSYYCSTEHALCGKPDQIEGSLAAFLPDLALAKRKTWRNPWRRSYHKRKKAEWEVDPDYCEEVRQTPPYDSSHRLLDVMDMTIFDFLMGNMDRHHYETFEKFGNETFIIHLDNGRGFGKHSHDELSILVPLQQCCRIRRSTYLRLQLLAQEEHRLSLLMAEALRADRVAPVLFQPHLEALDRRLRIVLRAVGDCVEKDGLHSVVEDDLGPEHRAAAGRHDEL			In lanes containing beta casein coexpressed with 1 human kinase, 2 human kinases, 1 bovine kinase or 2 bovine kinases the bands are shifted upward on the gel relative to the sample transformed with only beta casein	
